Target: recombinant trimeric HA of A/New Caledonia/20/1999 (H1N1) (Influenza A virus A/New …, UniProt Q6WG00)
Assay: cell-based or functional assay

B1: F11 IgA1 polymer (antibody, V domains shown)
VH: QVQLVQSGAEVKRPGSSVRVSCRTSGGSFTSFAISWVRQAPGQGLEWMGRITRILGVPNYAQKFQGRVTITADMPTTTAYLDLTNLRSEDTAVYYCARDSGTSHGDFDYWGQGTLVTVSS
VL: EIVLTQSPVTLSLSPGERATLSCRASQNVINSLVWYQQKPGQAPRLLIYGASNRATGIPARFRGSGSGTDFTLTIDSLEPEDIAVYYCQQRGTWLWSFGQGTKVEIK
- HI activity, minimum HI concentration, NC20 virus: 62.5 µg/mL
- NI activity, EC50 (NI-ELLA), NC20 virus: 0.106 µg/mL
- NT activity, minimum virus-neutralizing concentration, NC20 virus: 15.8 µg/mL

B2: F11 IgA2m2 monomer (antibody, V domains shown)
VH: B1 VH
VL: B1 VL
- HI activity, minimum HI concentration, NC20 virus: 31.3 µg/mL
- NI activity, EC50 (NI-ELLA), NC20 virus: 0.0617 µg/mL

B3: F11 IgA2m2 polymer (antibody, V domains shown)
VH: B1 VH
VL: B1 VL
- NI activity, EC50 (NI-ELLA), NC20 virus: 0.0162 µg/mL
- NT activity, minimum virus-neutralizing concentration, NC20 virus: 5.57 µg/mL

B4: F11 IgA1 monomer (antibody, V domains shown)
VH: B1 VH
VL: B1 VL
- HI activity, minimum HI concentration, NC20 virus: 62.5 µg/mL
- NI activity, EC50 (NI-ELLA), NC20 virus: 0.148 µg/mL
- NT activity, minimum virus-neutralizing concentration, NC20 virus: 28.1 µg/mL

— publication PMC7790537 (PLoS ONE, 2021)
